One series relates to A375R cells. As to the kind of experiment: Melanoma cell line viability assay (CellTiter-Glo). The format is cell-based, human. The conditions noted are these: ADC 1×10^−4 to 10 μg/mL, 5 days. A general note: ATP-based viability assays read luminescence as a measure of living cells.
A further series has as its system M019R cells. Briefly: Patient-derived low passage melanoma culture viability assay. The conditions noted are these: ADC 8 days. The format is cell-based, human.
A further series deals with SKMEL147 cells. As to the kind of experiment: Melanoma cell line viability assay (CellTiter-Glo). It counts as cell-based, human. The conditions noted are these: ADC 1×10^−4 to 10 μg/mL, 5 days.
The subject of the next series is M016 cells. As to the kind of experiment: Patient-derived low passage melanoma culture viability assay. It counts as cell-based, human. The settings on record: ADC 8 days.
For a further series, the system named is SKMEL28 cells. Briefly: Melanoma cell line viability assay (CellTiter-Glo). It counts as cell-based, human. The conditions noted are these: ADC 1×10^−4 to 10 μg/mL, 5 days.
The subject of another series is M082 cells. As to the kind of experiment: Patient-derived low passage melanoma culture viability assay. The format is cell-based, human. The conditions noted are these: ADC 8 days.
The subject of a further series is A875 cells. As to the kind of experiment: Melanoma cell line viability assay (CellTiter-Glo). It counts as cell-based, human. The conditions noted are these: ADC 1×10^−4 to 10 μg/mL, 5 days.
Another series deals with SKMEL28R cells. As to the kind of experiment: Melanoma cell line viability assay (CellTiter-Glo). The format is cell-based, human. The settings on record: ADC 1×10^−4 to 10 μg/mL, 5 days.
In another series the test system is PC9-ER cells. As to the kind of experiment: In vitro cytotoxicity assay, erlotinib-resistant NSCLC cell line. The format is cell-based, human.
The subject of a further series is A431 tumors. Briefly: Therapeutic A431 xenograft model. The conditions noted are these: 3 mg/kg intraperitoneally, model produces high levels of Gas6. The format is in vivo, SCID mice. The procedure:
(§1) Tumor induction was performed by subcutaneous injection of 5×10^6 A431 or LCLC-103H tumor cells (both obtained from Leibniz-Institut—Deutsche Sammlung von Mikroorganismen and Zellkulturen GmbH (DSMZ)) in 200 μL PBS in the right flank of female SCID mice. Treatment was started 14-21 days after tumor cell inoculation, when the average tumor size was >100-200 mm^3 and distinct tumor growth was observed. Mice received a single injection or a total of 4 biweekly intraperitoneal injections with IgG1-AXL-vcMMAE ADCs or control antibody (unconjugated IgG1-b12), as indicated. Tumor volume was determined at least two times per week. Tumor volumes (mm^3) were calculated from caliper (PLEXX) measurements as: 0.52×(length)×(width)2.

The subject of another series is CEXF 773 tumors. As to the kind of experiment: Cervix carcinoma PDX model CEXF 773. It counts as in vivo, NMRI nu/nu mice. The settings on record: 4 mg/kg i.v. on day 0 and day 7. The procedure:
The anti-tumor activity of IgG1-AXL-183-vcMMAE and IgG1-AXL-726-vcMMAE was evaluated in the patient derived cervix carcinoma xenograft CEXF 773 model in NMRI nu/nu mice (Harlan, Netherlands). Experiments were performed by Oncotest (Freiburg, Germany).
Tumor fragments were obtained from xenografts in serial passage in nude mice. After removal from donor mice, tumors were cut into fragments (4-5 mm diameter) and placed in PBS (with 10% penicillin/streptomycin) until subcutaneous implantation. Mice under isofluorane anesthesia received unilateral, subcutaneous tumor implants in the flank. Tumors were allowed to grow until the tumor volume was 50-250 mm^3.
The treatment groups were: IgG1-b12, IgG1-b12-vcMMAE, IgG1-AXL-183-vcMMAE and IgG1-AXL-726-vcMMAE. The antibodies and ADCs were dosed intravenously (i.v.) at 4 mg/kg on the day of randomization (day 0) and on day 7. Tumor volumes (mm^3) were monitored twice weekly and were calculated from caliper (PLEXX) measurements as: 0.52×(length)×(width)^2.

Series [1] concerns LCLC-103H xenograft tumors. Briefly: Therapeutic LCLC-103H xenograft model. The format is in vivo, SCID mice. The procedure:
5×10^6 LCLC-103H (large cell lung carcinoma) tumor cells (obtained from Leibniz-Institut DSMZ-Deutsche Sammlung von Mikroorganismen and Zellkulturen GmbH (DSMZ)) in 200 μL PBS were injected subcutaneously in the right flank of female SCID mice. Starting 14-21 days after tumor cell inoculation, when the average tumor size was >100-200 mm^3 and distinct tumor growth was observed, a single injection with 1 mg/kg (20 μg/mouse) IgG1-AXL-vcMMAE antibodies (as described in Supplementary Example 1) or control (unconjugated IgG1-b12) was given intraperitoneally (100 μL/mouse). Tumor volume was determined at least two times per week. Tumor volumes (mm^3) were calculated from caliper (PLEXX) measurements as: 0.52×(length)×(width)^2.
as §1

A further series concerns MDA-MB-231 tumors. As to the kind of experiment: Orthotopic MDA-MB-231-luc D3H2LN breast cancer xenograft model. The format is in vivo, SCID mice. The settings on record: 4 biweekly doses of 3 mg/kg. The procedure:
The anti-tumor activity of IgG1-AXL-183-vcMMAE and IgG1-AXL-726-vcMMAE was evaluated in an orthotopic MDA-MB-231 D3H2LN xenograft model.
MDA-MB-231-luc D3H2LN Bioware cells (mammary gland adenocarcinoma; Perkin Elmer, Waltham, Mass.) were implanted in the mammary fat pad of 6-11 week old, female SCID (C.B-17/IcrPrkdc-scid/CRL) mice (Charles-River) under isofluorane anesthesia. Tumors were allowed to grow and mice were randomized when tumors reached a volume of ^˜325 mm^3. […] The treatment groups were: IgG1-b12, IgG1-b12-vcMMAE, IgG1-AXL-183-vcMMAE and IgG1-AXL-726-vcMMAE. The animals received a total of 4 biweekly doses of 3 mg/kg antibody or ADC starting at the day of randomization. Tumor volumes (mm^3) were monitored twice weekly and were calculated from caliper (PLEXX) measurements as: 0.52×(length)×(width)^2.

A further series concerns MDA-MB231 cells. The conditions noted are these: MDA-MB231 (n = 2), 5 days.
The subject of another series is PAXF1657 tumors. Briefly: PAXF1657 pancreas cancer PDX model. It counts as in vivo, NMRI nu/nu mice. As to the method: Human pancreas tumor tissue was subcutaneously implanted in the left flank of 5-7 weeks old female NMRI nu/nu mice. […] At day of randomization (day 0), the 3 ADCs were dosed intravenously (i.v.) at either 4 mg/kg or 2 mg/kg, and the control group received a single dose of IgG1-b12 (4 mg/kg). Tumor volumes (mm^3) were monitored twice weekly and were calculated from caliper (PLEXX) measurements as: 0.52×(length)×(width)^2.

For a further series, the system named is A431 cells. The settings on record: A431 (n = 3), 5 days.
For a further series, the system named is LCLC-103H cells. The conditions noted are these: 5 days.
The mark [2] stands for this setting: Example 13: 3 mg/kg intraperitoneally.

With `CCCS(=O)(=O)Nc1ccc(F)c(C(=O)c2c[nH]c3ncc(Cl)cc23)c1F` [PLX4720, N-(3-(5-chloro-1H-pyrrolo[2,3-b]pyridine-3-carbonyl)-2,4-difluorophenyl)propane-1-sulfonamide, reference compound], the “sensitivity of the cell line to the substance” value was “resistant” in the series on A375R cells; “resistant” in the series on SKMEL147 cells; “sensitive” in the series on SKMEL28 cells; “sensitive” in the series with A875 cells; “resistant” in the series on SKMEL28R cells. In addition, the “sensitivity of the culture to the substance” value in the series on M019R cells, with M016 cells and in the series on M082 cells was “resistant” in each case.
For the molecule `C#Cc1cccc(Nc2ncnc3cc(OCCOC)c(OCCOC)cc23)c1` [erlotinib, reference compound], the “sensitivity of the cell line (cell viability)” value with PC9-ER cells is given as “acquired resistance”.

B1: IgG1-AXL-183-vcMMAE: IgG1-AXL-183 (FN1-binder) conjugated to vcMMAE (conjugate)
VH: QVQLQQWGAGLLKPSETLSLTCAVYGGSFSGYYWSWIRQPPGKGLEWIGEINQSGSTNYNPSLKSRVTISVDTSKNQFSLKLSSVTAADTSVYYCASGNWDHFFDYWGQGTLVTVSS
VL: DIQMTQSPSSVSASVGDRVTITCRASQGISSWLAWYQHKPGKAPKLLIYATSSLQSGVTSRFSGSGSGTDFTLTISSLQPEDFATYYCQQAKSFPWTFGQGTKVEIK
For the molecule B1, the anti-tumor activity result in the series on A431 tumors is listed as “induced growth inhibition”; in the series on CEXF 773 tumors, “induced tumor regression”; in series [1] (setting [2]) it was “induced tumor regression”; in the series on MDA-MB-231 tumors it was “induced tumor regression”.

B2: IgG1-AXL-148-vcMMAE: IgG1-AXL-148 conjugated at cysteines to vcMMAE (conjugate)
VH: EVQLLESGGGLVQPGGSLRLSCAASGFTFSSYAMTWVRQAPGKGLEWVSAISISGGSTFYADSVKGRFTISRDNSKNTLYLQMNSLRAEDTAVYYCRGYSGYVYDAFDFWGQGTMVTVSS
VL: DIQMTQSPSSLSASVGDRVTITCRASQGISNWLAWYQQKPEKAPKSLIYAASSLQSGVPSRFSGSGSGTDFTLTISSLQPEDFATYYCQQYNSYPLTFGGGTKVEIK
On to B2, for which the entries for the “Cytotoxicity EC50 Mean” value in the series on MDA-MB231 cells and in the series on A431 cells were 0.012 µg/mL and 0.070 µg/mL, respectively. The anti-tumor activity entry with A431 tumors is given as “induced growth inhibition”; in series [1] (Example 9: single injection 1 mg/kg intraperitoneally), “induced tumor regression”; in [1] (setting [2]), “induced tumor regression”; in the series on PAXF1657 tumors (2 mg/kg i.v. at day 0), “significantly reduced the growth”; with PAXF1657 tumors (4 mg/kg i.v. at day 0) it was “induced tumor regression”; with PAXF1657 tumors (dose not stated in the sentence (FIG. 10B, 10C)) it was “dose-dependent antitumor activity”. In addition, the “Cytotoxicity EC50” value with LCLC-103H cells is 0.012 µg/mL.

B3: IgG1-AXL-726-vcMMAE: IgG1-AXL-726 (FN2-binder) conjugated to vcMMAE (conjugate)
VH: QVQLQQWGAGLLKPSETLSLTCAIDGGSFSGYYWSWIRQPPGKGLEWIGEISHSGRTNYNPSLKSRVTISIDTSKNQFSLKLSSVAAADTAVYYCARFITMIRGAIITHFDYWGQGALVTVSS
VL: DIQMTQSPSSLSASVGDRVTITCRASQGISSWLAWYQQKPEKAPKSLIYAASSLQSGVPSRFSGSGSGTDFTLTISSLQPEDFATYYCQQYHSYPYTFGQGTKLEIK
In the case of B3, the anti-tumor activity result is recorded as “induced growth inhibition” in the series with A431 tumors, “induced tumor regression” in the series on CEXF 773 tumors, “induced tumor regression” in series [1] (setting [2]) and “induced tumor regression” with MDA-MB-231 tumors.

The record behind these values is patent US20200397913A1, “AXL-SPECIFIC ANTIBODY-DRUG CONJUGATES FOR CANCER TREATMENT” (GENMAB A/S, priority 2015, published 2020).
